Series [1] is described as follows: Stability of proenkephalin fragments and enkephalins ex vivo (plasma, liquor). In kind it is in vitro ADME. An excerpt: In one embodiment the invention is based on and uses the discovered long term stability of proenkephalin and enkephalin-fp ex vivo in plasma (FIG. 3a). […] Proenkephalin and enkephalin-fp are stable as well in liquor.
The subject of the next series is B- and T-lymphocytes. The note with it: cited from earlier work.
The test system of series [2] is gram-positive bacteria like Streptococcus aureus, Bacillus megaterium and Micrococcus luteus. The note with it: cited from earlier work.
Series [3] concerns gram-negative bacteria like Escherichia coli. Particulars: cited from earlier work.

Ends that are not written are not given here.

For the molecule “DAEEDDSLANSSDLLKELLETGDNRERSHHQDGSDNEEEVS [enkephalin-fp]”, the half-life in series [1] (ex vivo in plasma) is more than 24 h. For the same molecule, in series [1], the stability in liquor entry is “stable”.

For the molecule methionine enkephalin [Met-ENK], the proliferation result in the series on B- and T-lymphocytes is given as “stimulates the proliferation”.

B1: Synenkephalin: PENK-A derived peptide with antibacterial properties (peptide, UniProt P01210 25-97, looked up)
Synenkephalin: ECSQDCATCSYRLVRPADINFLACVMECEGKLPSLKIWETCKELLQLSKPELPQDGTSTLRENSKPEESHLLA
modifications: Synenkephalin
As for B1, the antibacterial function result in series [2] is listed as “antibacterial properties”. The “antibacterial function / growth inhibition” value in series [3] is “antibacterial properties”.

B2: proenkephalin: precursor of the enkephalins, Sequence ID 1, including its fragments (protein)
chain: ECSQDCATCSYRLVRFADINFLACVMECEGKLPSLKIWETCKELLQLSKPELPQDGTSTLRENSKPEESHLLAKRYGGFMKRYGGFMKKMDELYPMEPEEEANGSEILAKRYGGFMKKNAEEDDSLANSSDLLKELLETGDNRERSHHQDGSDNEEEVSKRYGGFMRGLKRSPQLEDEAKELQKRYGGFMRRVGRPEWWMDYQKRYGGFLKRFAEALPSDEEGESYSKEVPEMEKRYGGFMRF
Consider B2, for which, in series [1], the stability in liquor entry is recorded as “stable”. The in vivo half-life entry in “In vivo half-life” is “about 24 hours”.

Broadly, the half-life is the time in which the quantity being followed falls by half. Low readings indicate fast loss, high ones slow loss.

(Values after patent US8013123B2 (B.R.A.H.M.S. GmbH, priority 2004, dated 2011).)
